Data: article PMC6745501, “Plant photoreceptors and their signaling components compete for COP1 binding via VP peptide motifs” (The EMBO Journal, 2019)

Legend:
[1] = target: T1, Arabidopsis COP1^349–675 WD40 domain (Arabidopsis, UniProt P43254 349-675); assay: grating-coupled interferometry (GCI); COP1 WD40 amine-coupled (2,000 pg/mm^2), surface passivated with BSA; analyte full-length CRY2 activated by light (highest 14 μM) or CRY2^NC80 (highest 450 μM); 150 mM NaCl, 20 mM HEPES 7.4, 2 mM BME; 25°C; heterogenous ligand model; settings: both partners purified
T1 construct: COP1 (CONSTITUTIVELY PHOTOMORPHOGENIC 1) E3 ubiquitin ligase, Arabidopsis, WD40 domain, residues 349-675; also called COP1 WD40 domain; COP1 WD40; not shown: His10, N-terminal, cleaved; Twin-Strep, N-terminal, cleaved
T1 sequence (looked up): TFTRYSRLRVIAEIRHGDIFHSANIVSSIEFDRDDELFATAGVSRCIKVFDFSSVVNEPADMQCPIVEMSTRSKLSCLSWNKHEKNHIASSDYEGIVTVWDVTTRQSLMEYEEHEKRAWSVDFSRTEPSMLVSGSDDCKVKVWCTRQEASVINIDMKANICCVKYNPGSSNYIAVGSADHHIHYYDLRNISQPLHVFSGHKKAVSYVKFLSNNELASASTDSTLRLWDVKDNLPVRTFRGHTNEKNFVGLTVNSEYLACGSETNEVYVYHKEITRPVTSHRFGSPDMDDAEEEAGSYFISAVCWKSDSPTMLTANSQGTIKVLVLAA

[2] = target: T1, Arabidopsis COP1^349–675 WD40 domain; assay: grating-coupled interferometry (GCI); COP1 WD40 amine-coupled to the chip (2,000 pg/mm^2); analyte in 1:3 dilution series from 2 μM (UVR8 forms pre-monomerized by UV-B; HY5); 150 mM NaCl, 20 mM HEPES 7.4, 2 mM BME; 25°C; 1:1 binding model; settings: both partners purified

B1: CRY2^NC80 (CRY2^486–565) (domain or fragment, Arabidopsis, UniProt Q96524 486-565, looked up)
chain: SRTREAQIMIGAAPDEIVADSFEALGANTIKEPGLCPSVSSNDQQVPSAVRYNGSKRVKPEEEEERDMKKSRGFDERELF
notes: cryptochrome 2 (CRY2), Arabidopsis, fragment of the C-terminus containing the VP motif (NC80 domain), residues 486-565; also called NC80 domain; not shown: His10, N-terminal, cleaved; Twin-Strep, N-terminal, cleaved
B1: binds [1].

B2: full‐length CRY2 (recombinant) (receptor, Arabidopsis, UniProt Q96524 1-612, looked up)
chain: MKMDKKTIVWFRRDLRIEDNPALAAAAHEGSVFPVFIWCPEEEGQFYPGRASRWWMKQSLAHLSQSLKALGSDLTLIKTHNTISAILDCIRVTGATKVVFNHLYDPVSLVRDHTVKEKLVERGISVQSYNGDLLYEPWEIYCEKGKPFTSFNSYWKKCLDMSIESVMLPPPWRLMPITAAAEAIWACSIEELGLENEAEKPSNALLTRAWSPGWSNADKLLNEFIEKQLIDYAKNSKKVVGNSTSLLSPYLHFGEISVRHVFQCARMKQIIWARDKNSEGEESADLFLRGIGLREYSRYICFNFPFTHEQSLLSHLRFFPWDADVDKFKAWRQGRTGYPLVDAGMRELWATGWMHNRIRVIVSSFAVKFLLLPWKWGMKYFWDTLLDADLECDILGWQYISGSIPDGHELDRLDNPALQGAKYDPEGEYIRQWLPELARLPTEWIHHPWDAPLTVLKASGVELGTNYAKPIVDIDTARELLAKAISRTREAQIMIGAAPDEIVADSFEALGANTIKEPGLCPSVSSNDQQVPSAVRYNGSKRVKPEEEEERDMKKSRGFDERELFSTAESSSSSSVFFVSQSCSLASEGKNLEGIQDSSDQITTSLGKNGCK
notes: cryptochrome 2 (CRY2), Arabidopsis blue-light photoreceptor, full length; not shown: His10, N-terminal, cleaved; Twin-Strep, N-terminal, cleaved
In the case of B2, the “fold increase in binding affinity over the isolated CRY2 VP peptide” value [1] is reported as about 200 fold.

B3: full‐length HY5 protein (recombinant) (natural protein, Arabidopsis, UniProt O24646 1-168, looked up)
chain: MQEQATSSLAASSLPSSSERSSSSAPHLEIKEGIESDEEIRRVPEFGGEAVGKETSGRESGSATGQERTQATVGESQRKRGRTPAEKENKRLKRLLRNRVSAQQARERKKAYLSELENRVKDLENKNSELEERLSTLQNENQMLRHILKNTTGNKRGGGGGSNADASL
notes: ELONGATED HYPOCOTYL 5 (HY5) bZIP transcription factor, full length; not shown: His10, N-terminal, cleaved; Twin-Strep, N-terminal, cleaved
B3 was tested, and the Kd [2] was about 1000 nM.
